The test deals with T1, human CD70 (human, UniProt P32970 1-193).
T1 chain: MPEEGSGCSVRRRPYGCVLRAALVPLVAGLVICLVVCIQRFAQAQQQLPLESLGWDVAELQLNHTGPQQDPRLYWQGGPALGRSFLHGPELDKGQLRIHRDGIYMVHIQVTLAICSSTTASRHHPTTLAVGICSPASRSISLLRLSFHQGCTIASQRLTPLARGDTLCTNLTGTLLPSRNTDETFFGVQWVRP
Description: FACS blocking of CD27(ECD)-Fc binding; CHO-CD70 cells.

What is called IC50 is the midpoint of a concentration-inhibition curve. A higher IC50 goes with weaker potency in that assay.

B1: Cusatuzumab (antibody, V domains shown)
VH: EVQLVESGGGLVQPGGSLRLSCAASGFTFSVYYMNWVRQAPGKGLEWVSDINNEGGTTYYADSVKGRFTISRDNSKNSLYLQMNSLRAEDTAVYYCARDAGYSNHVPIFDSWGQGTLVTVSS
VL: QAVVTQEPSLTVSPGGTVTLTCGLKSGSVTSDNFPTWYQQTPGQAPRLLIYNTNTRHSGVPDRFSGSILGNKAALTITGAQADDEAEYFCALFISNPSVEFGGGTQLTVLG
In turn, B1 displayed an IC50 of 2.39 nM.

B2: IMM40H (antibody, V domains shown)
VH: QVQLVQSGAEVKKPGASVKVSCKVSGYTFTDSALHWVRQAPGKGLEWMGVISTYDGDTDYNQKFKGRVTMTEDTSTDTAYMELSSLRSEDTAVYYCARRGYYDYDWFPYWGQGTLVTVSA
VL: DIVLTQSPASLAVSPGQRATITCRASKSVSASGYSFLHWYQQKPGQPPKLLIYLASNLESGVPARFSGSGSGTDFTLTINPVEANDTANYYCQHSRELPPTFGGGTKVEIKR
Consider B2, for which the IC50 was 2.04 nM.

The record behind these values is US20230112123A1 (published 2023).
